# In IntAct's records for PubMed 22085930:
# B1: Ubiquitin-conjugating enzyme E2-21 kDa (Saccharomyces cerevisiae), P29340 (parent)
# chain: MPNFWILENRRSYTSDTCMSRIVKEYKVILKTLASDDPIANPYRGIIESLNPIDETDLSKWEAIISGPSDTPYENHQFRILIEVPSSYPMNPPKISFMQNNILHCNVKSATGEICLNILKPEEWTPVWDLLHCVHAVWRLLREPVCDSPLDVDIGNIIRCGDMSAYQGIVKYFLAERERINNH
# partner: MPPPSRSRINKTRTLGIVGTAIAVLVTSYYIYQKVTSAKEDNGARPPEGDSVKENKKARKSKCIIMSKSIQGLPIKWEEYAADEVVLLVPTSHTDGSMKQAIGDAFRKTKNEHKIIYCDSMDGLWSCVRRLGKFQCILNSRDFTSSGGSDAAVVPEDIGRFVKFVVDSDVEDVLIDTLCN
# B2: Peroxisome assembly protein 22 (Saccharomyces cerevisiae), P39718 (parent)
# chain: B1 partner
# partner: B1 chain
# Variants of: B1
# Settings: with pex22_yeast PEX22, P39718
row,Variant,effect of a mutation on the interaction
1,MPNFWILENRRSYTSDTCMSRIVKEYKVILKTLASDDPIANPYRGIIESLNPIDETDLSKWEAIISGPSDTPYENHQFRILIEVPSSYPMNPPKISFMQNNILHCNVKSATGEICLNILKPEEWTPVWDLLHCVHAVWRLLREPVCDSPLDVDIGNIIRCGDMSAYQGIVKAFLAERERINNH,disrupting interaction

# Variants of: B1
# Settings: with pex22_yeast PEX22, P39718
# Remark: another data set of the same source
row,Variant,effect of a mutation on the interaction
1,MPNFWILENRRSYTSDTCMSRIVKEYKVILKTLASDDPIANPYRGIIESLNPIDETDLSKWEAIISGPSDTPYENHQFRILIEVPSSYPMNPPKISFMQNNILHCNVKSATGEICLNILKPEEWTPVWDLLHCVHAVWRLLREPVCDSPLDVDIGNIIRCGDMSAYQGIVKFFLAERERINNH,decreasing interaction

# Variants of: B2
# Settings: with ubcx_yeast PEX4, P29340
row,Variant,effect of a mutation on the interaction
1,MPPPSRSRINKTRTLGIVGTAIAVLVTSYYIYQKVTSAKEDNGARPPEGDSVKENKKARKSKCIIMSKSIQGLPIKWEEYAADEVVLLVPTSHTDGSMKQAIGDAFRKTKNEHKIIYCDSMDGLWSCVRRLGAFQCILNSRDFTSSGGSDAAVVPEDIGRFVKFVVDSDVEDVLIDTLCN,decreasing interaction
